# Positions count from the first letter of the chain named.
# B1: m1613F12 (murine 1613F12, hybridoma CNCM I-4505) (antibody, V domains shown)
# VH: EVHLQQSGAELVKPGASVKLSCTASGFNIRDTYIHWVKQRPEQGLEWIGRLDPANGHTKYGPNFQGRATMTSDTSSNTAYLQLSSLTSEDTAVYYCARGAYYYGSSGLFYFDYWGQGTTLSVSS
# VL: DVQITQSPSYLATSPGETITINCRASKSISKYLAWYQEKPGKTNKLLIYSGSTLQSGVPSRFSGSGSGTDFTLTISSLEPEDFAMYFCQQHHEYPLTFGAGTELELK
# notes: Murine monoclonal antibody; also called Axl antibody
# Columns and labels:
# membrane Axl receptor = biological target: T1, membrane Axl receptor (Homo sapiens, UniProt P30530); experiment: FACS binding on human tumor cells; conditions: various human tumor cells
# T1 construct: endogenous in cells; host or cells: human tumor cell lines SN12C, Calu-1, MDA-MB435S, MDA-MB231, NCI-H125, MCF7 (Axl-negative), Panc1
# T1 sequence (P30530 26-894): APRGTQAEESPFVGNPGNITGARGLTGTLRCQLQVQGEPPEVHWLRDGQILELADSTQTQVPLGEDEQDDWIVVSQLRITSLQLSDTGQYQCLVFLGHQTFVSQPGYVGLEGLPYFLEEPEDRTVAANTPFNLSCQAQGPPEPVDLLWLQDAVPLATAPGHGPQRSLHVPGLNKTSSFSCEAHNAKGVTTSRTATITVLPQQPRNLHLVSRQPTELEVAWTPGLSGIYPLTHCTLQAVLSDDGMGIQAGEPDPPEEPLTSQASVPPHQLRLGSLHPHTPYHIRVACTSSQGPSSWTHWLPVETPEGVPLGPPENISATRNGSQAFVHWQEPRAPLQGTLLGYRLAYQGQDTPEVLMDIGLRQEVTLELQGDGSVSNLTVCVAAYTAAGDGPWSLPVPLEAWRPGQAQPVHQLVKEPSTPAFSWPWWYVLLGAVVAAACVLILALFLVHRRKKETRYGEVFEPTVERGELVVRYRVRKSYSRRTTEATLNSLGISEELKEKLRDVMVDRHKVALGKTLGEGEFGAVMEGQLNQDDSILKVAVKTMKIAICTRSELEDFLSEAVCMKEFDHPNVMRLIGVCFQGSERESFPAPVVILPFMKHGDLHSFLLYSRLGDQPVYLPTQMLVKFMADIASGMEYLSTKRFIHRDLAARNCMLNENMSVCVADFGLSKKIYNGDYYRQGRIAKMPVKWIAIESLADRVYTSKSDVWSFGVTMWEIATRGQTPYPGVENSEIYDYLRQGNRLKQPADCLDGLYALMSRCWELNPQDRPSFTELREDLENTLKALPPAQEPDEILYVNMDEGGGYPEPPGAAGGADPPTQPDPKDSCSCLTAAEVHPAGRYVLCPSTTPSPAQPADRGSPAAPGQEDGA
# Experimental: For cell surface binding studies, two fold serial dilutions of a 10 μg/ml (6.66 10^−8 M) primary antibody solution (1613F12, MAB154 or mIgG1 isotype control 9G4 Mab) are prepared and are applied on 2·10^5 cells for 20 min at 4° C. After 3 washes in phosphate-buffered saline (PBS) supplemented with 1% BSA and 0.01% NaN3, cells were incubated with secondary antibody Goat anti-mouse Alexa 488 ( 1/500° dilution) for 20 minutes at 4° C. After 3 additional washes in PBS supplemented with 1% BSA and […], cells were analyzed by FACS (Facscalibur, Becton-Dickinson). At least 5000 cells were assessed to calculate the mean value of fluorescence intensity.
# 1613F12 dose response curves were prepared. MFIs obtained using the various human tumor cells were then analysed with Prism software.
# SN12C cells = experiment: Internalization study by fluorescent immunocytochemistry (confocal microscopy); format: cell-based, human; conditions: 10 μg/ml, 1 h and 2 h at 37° C.
# Experimental: Briefly, SN12C tumor cell line was cultured in RMPI1640 with 1% L-glutamine and 10% of FCS for 3 days before experiment. Cells were then detached using trypsin and plated in 6-multiwell plate containing coverslide in RPMI1640 with 1% L-glutamine and 5% FCS. The next day, 1613F12 was added at 10 μg/ml. Cells treated with an irrelevant antibody were also included. The cells were then incubated for 1 h and 2 h at 37° C., 5% CO2. For T 0 h, cells were incubated for 30 minutes at 4° C. to determine antibody binding on cell surface. Cells were washed with PBS and fixed with paraformaldehyde for 15 minutes. Cells were rinsed and incubated with a goat anti-mouse IgG Alexa 488 antibody for 60 minutes at 4° C. to identify remaining antibody on the cell surface. To follow antibody penetration into the cells, cells were fixed and permeabilized with saponin. A goat anti-mouse IgG Alexa 488 (Invitrogen) was used to stained both the membrane and the intracellular antibody. […] Cells were washed three times and nuclei were stained using Draq5. After staining, cells were mounted in Prolong Gold mounting medium (Invitrogen) and analyzed by using a Zeiss LSM 510 confocal microscope.
# [1] = biological target: T2, human Axl receptor on the surface of human tumor cells (human, UniProt P30530 26-894); experiment: flow cytometry on human tumor cells
# T2 construct: Endogenous Axl on human tumor cell lines (SN12C, Calu-1, MDA-MB435S, MDA-MB231, NCI-H125, Panc1); also called cell-surface Axl; membrane Axl receptor
# T2 sequence: T1 sequence (P30530 26-894) with D241N
molecule,measurement,setting,value
B1,"binding to membrane Axl receptor on human tumor cells (FACS, saturation curves)",membrane Axl receptor,binds specifically to the membrane Axl receptor
same,internalization (membrane and intracellular staining),SN12C cells,internalization of 1613F12 into SN12C cells
same,binding result,[1],binds

# — patent US20160106861A1, “AXL ANTIBODY-DRUG CONJUGATE AND ITS USE FOR THE TREATMENT OF CANCER” (PIERRE FABRE MEDICAMENT, priority 2013, published 2016)
